Measurements: article PMC4931344, “The FNIP co-chaperones decelerate the Hsp90 chaperone cycle and enhance drug binding” (Nature Communications, 2016)
Each block holds one molecule with its values, some of them ahead of it.

Experiments:
[1] = molecular target: FNIP1-D–His6 labelled with Texas Red Maleimide (UniProt Q8TF40); test: fluorescence polarisation; fluorescence anisotropy; 1 μM Texas Red-labelled FNIP1-D, Hsp90α titrated; 50 mM Tris pH 7.2, 150 mM NaCl, 1 mM TCEP, 4 mM MgCl2, with or without 1 mM ATP, ADP or AMPPNP; single-site binding equation
[2] = molecular target: T1, FLAG–FNIP1 (bacterially expressed and purified) (UniProt Q8TF40 1-1166); test: pull-down; His6-tagged protein bound to Ni-NTA agarose, incubated with 10 ng pure FLAG–FNIP1; immunoblot; conditions: both partners purified
T1 construct: FNIP1; bacterial expression from pRSET-A; also called recombinant FNIP1; source: bacterially expressed and purified (a small amount)
T1 sequence (looked up): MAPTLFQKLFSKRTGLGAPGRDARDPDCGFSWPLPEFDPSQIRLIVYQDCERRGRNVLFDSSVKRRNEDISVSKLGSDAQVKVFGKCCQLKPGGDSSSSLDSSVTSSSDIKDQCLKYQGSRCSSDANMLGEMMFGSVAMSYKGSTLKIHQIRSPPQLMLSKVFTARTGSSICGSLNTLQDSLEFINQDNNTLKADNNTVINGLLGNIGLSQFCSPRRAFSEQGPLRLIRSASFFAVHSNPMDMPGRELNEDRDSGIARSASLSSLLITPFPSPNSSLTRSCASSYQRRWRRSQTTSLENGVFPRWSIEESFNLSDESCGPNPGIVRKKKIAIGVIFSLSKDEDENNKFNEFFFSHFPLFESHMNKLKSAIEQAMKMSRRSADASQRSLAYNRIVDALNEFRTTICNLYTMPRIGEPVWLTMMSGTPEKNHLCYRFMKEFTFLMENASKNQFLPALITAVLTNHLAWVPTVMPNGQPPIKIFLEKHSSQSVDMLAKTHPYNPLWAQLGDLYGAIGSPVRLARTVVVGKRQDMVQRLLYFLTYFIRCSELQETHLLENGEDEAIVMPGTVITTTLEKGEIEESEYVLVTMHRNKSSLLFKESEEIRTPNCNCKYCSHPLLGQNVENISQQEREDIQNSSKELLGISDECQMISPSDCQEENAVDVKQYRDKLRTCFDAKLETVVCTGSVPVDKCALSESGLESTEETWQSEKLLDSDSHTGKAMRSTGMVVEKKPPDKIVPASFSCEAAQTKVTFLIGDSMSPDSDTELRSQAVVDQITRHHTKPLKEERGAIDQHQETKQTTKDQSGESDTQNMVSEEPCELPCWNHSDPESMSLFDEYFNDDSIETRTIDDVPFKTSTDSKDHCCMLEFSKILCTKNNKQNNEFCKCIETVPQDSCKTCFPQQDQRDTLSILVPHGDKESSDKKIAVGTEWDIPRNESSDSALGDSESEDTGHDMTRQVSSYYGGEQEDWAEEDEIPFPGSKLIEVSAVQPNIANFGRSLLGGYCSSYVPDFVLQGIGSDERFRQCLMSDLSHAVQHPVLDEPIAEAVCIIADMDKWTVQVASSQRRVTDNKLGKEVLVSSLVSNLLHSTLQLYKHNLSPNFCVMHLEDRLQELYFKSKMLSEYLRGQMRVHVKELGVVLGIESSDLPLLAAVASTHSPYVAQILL

[3] = molecular target: Hsp90α–FLAG full-length (wild type) (human) (UniProt P07900)

B2: HA–FNIP2 (natural protein)
chain: MAPTLLQKLFNKRGSSGSSAAASAQGRAPKEGPAFSWSCSEFDLNEIRLIVYQDCDRRGRQVLFDSKAVQKIEEVTAQKTEDVPIKISAKCCQGSSSVSSSSSSSISSHSSSGGSSHHAKEQLPKYQYTRPASDVNMLGEMMFGSVAMSYKGSTLKIHYIRSPPQLMISKVFSARMGSFCGSTNNLQDSFEYINQDPNLGKLNTNQNSLGPCRTGSNLAHSTPVDMPSRGQNEDRDSGIARSASLSSLLITPFPSPSSSTSSSSSYQRRWLRSQTTSLENGIIPRRSTDETFSLAEETCSSNPAMVRRKKIAISIIFSLCEKEEAQRNFQDFFFSHFPLFESHMNRLKSAIEKAMISCRKIAESSLRVQFYVSRLMEALGEFRGTIWNLYSVPRIAEPVWLTMMSGTLEKNQLCQRFLKEFTLLIEQINKNQFFAALLTAVLTYHLAWVPTVMPVDHPPIKAFSEKRTSQSVNMLAKTHPYNPLWAQLGDLYGAIGSPVRLTRTVVVGKQKDLVQRILYVLTYFLRCSELQENQLTWSGNHGEGDQVLNGSKIITALEKGEVEESEYVVITVRNEPALVPPILPPTAAERHNPWPTGFPECPEGTDSRDLGLKPDKEANRRPEQGSEACSAGCLGPASDASWKPQNAFCGDEKNKEAPQDGSSRLPSCEVLGAGMKMDQQAVCELLKVEMPTRLPDRSVAWPCPDRHLREKPSLEKVTFQIGSFASPESDFESRMKKMEERVKACGPSLEASEAADVAQDPQVSRSPFKPGFQENVCCPQNRLSEGDEGESDKGFAEDRGSRNDMAADIAGQLSHAADLGTASHGAGGTGGRRLEATRGLYVKAAEGPVLEPVAPRCVQRGPGLVAGANIPCGDDNKKANFRTEGDIPRNESSDSALGDSDDEACASAMLDLGHGGDRTGGSLEVELPLPRSQSISTQNVRNFGRSLLAGYCPTYMPDLVLHGTGSDEKLKQCLVADLVHTVHHPVLDEPIAEAVCIIADTDKWSVQVATSQRKVTDNMKLGQDVLVSSQVSSLLQSILQLYKLHLPADFCIMHLEDRLQEMYLKSKMLSEYLRGHTRVHVKELGVVLGIESNDLPLLTAIASTHSPYVAQILL
inhibition of the in vitro ATPase activity of isolated Hsp90α (PiPer Phosphate Assay; Hsp90α 291.5 nM) by 1.6 μM FNIP2 [3]: 8 fold

B3: HA–FNIP1 (natural protein)
chain: T1 sequence (looked up)
inhibition of the in vitro ATPase activity of isolated Hsp90α (PiPer Phosphate Assay; Hsp90α 291.5 nM) by 200 nM FNIP1 (189.8 nM in the results) [3]: 50 fold

Continued, values first:

Kd [1]: 1300 nM
Molecule: Hsp90α–His6 (from UniProt P07900 1-732) (natural protein)

binding result [2]: binds
B1: FLCN–His6 (natural protein, UniProt Q8NFG4 1-579, looked up)
chain: MNAIVALCHFCELHGPRTLFCTEVLHAPLPQGDGNEDSPGQGEQAEEEEGGIQMNSRMRAHSPAEGASVESSSPGPKKSDMCEGCRSLAAGHPGYISHDKETSIKYVSHQHPSHPQLFSIVRQACVRSLSCEVCPGREGPIFFGDEQHGFVFSHTFFIKDSLARGFQRWYSIITIMMDRIYLINSWPFLLGKVRGIIDELQGKALKVFEAEQFGCPQRAQRMNTAFTPFLHQRNGNAARSLTSLTSDDNLWACLHTSFAWLLKACGSRLTEKLLEGAPTEDTLVQMEKLADLEEESESWDNSEAEEEEKAPVLPESTEGRELTQGPAESSSLSGCGSWQPRKLPVFKSLRHMRQVLGAPSFRMLAWHVLMGNQVIWKSRDVDLVQSAFEVLRTMLPVGCVRIIPYSSQYEEAYRCNFLGLSPHVQIPPHVLSSEFAVIVEVHAAARSTLHPVGCEDDQSLSKYEFVVTSGSPVAADRVGPTILNKIEAALTNQNLSVDVVDQCLVCLKEEWMNKVKVLFKFTKVDSRPKEDTQKLLSILGASEEDNVKLLKFWMTGLSKTYKSHLMSTVRSPTASESRN
notes: folliculin (FLCN), bacterially expressed; The name puts His6 behind the protein; source: bacterially expressed and purified; not shown: His6, N-terminal, kept
